Experimental data as given in the supplement of paper PMC12764529.
± gives the half width of the 95% confidence interval.

Key:
[1] = folding stability dG unfold from chymotrypsin proteolysis; higher = more stable
In short: (§1)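 Mini-proteins designed to be under 80 residues and free of cysteine were carried in a PA-tagged cDNA display construct and digested with trypsin and with chymotrypsin. Each protease was applied at 11 threefold-diluted concentrations, alongside a no-protease condition, before sequencing. K50 came from Bayesian fitting of the sequencing counts, and unfolding free energy was obtained by comparing it with a sequence-predicted unfolded-state K50 and a shared folded-state K50, for each protease separately or for both together. Designs were retained only if their AlphaFold2 dimer inter-PAE exceeded 15.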

[2] = folding stability dG unfold from trypsin proteolysis; higher = more stable
In short: as §1

[3] = folding stability dG unfold (combined trypsin and chymotrypsin); higher = more stable
In short: as §1

Sequence	folding stability dG unfold [1]	folding stability dG unfold [2]	folding stability dG unfold [3]
SAGGSAGGSAGSMFMIMIEYDPPGYIKVSINRYKMGPDGDFEPVEPETHEIPIPPGQPFFSAGGSAGGSAGG [r11_440_TrROS]	2.36 ± 0.13 kcal/mol	1.91 ± 0.14 kcal/mol	2.3 ± 0.17 kcal/mol
SAGGSAGGSAGSMLTTTLPNGTPVTREFDIQDVEPKGDVIKVVITNPTGGEVPASTVIGPVNSAGGSAGGSA [r18_163_JUSTAS]	0.757 ± 0.03 kcal/mol	0.412 ± 0.051 kcal/mol	0.657 ± 0.081 kcal/mol
SAGGSAGGSAGSMSLPVTELVVESVDPLEGVLVVKVKGTLPDGSEVELTLEFKPDEPLELSAGGSAGGSAGG [r11_211_JUSTAS]	0.375 ± 0.066 kcal/mol	0.992 ± 0.043 kcal/mol	0.71 ± 0.11 kcal/mol
SAGGSAGGSAGSMTVTVTGGGVSVEVYPETGLVRVRSPSGSETLVDIATGEVVRREPAAASAGGSAGGSAGG [r11_149_JUSTAS]	0.872 ± 0.029 kcal/mol	0.631 ± 0.047 kcal/mol	0.781 ± 0.066 kcal/mol
SAGGSAGGSAGSNKVVTFVPRDPATGAPLGERPIPINSSSGSEIESIKKELPPEVVEIVESAGGSAGGSAGG [r17_339_JUSTAS]	1.15 ± 0.02 kcal/mol	0.605 ± 0.044 kcal/mol	1.01 ± 0.066 kcal/mol
SAGGSAGGSAGSSILSVVEEDPETGLRVVLSPVSDVPVRIVTKRIPEKEEIKVLEVERLPSAGGSAGGSAGG [r11_1066_JUSTAS]	-0.758 ± 0.37 kcal/mol	-0.603 ± 0.38 kcal/mol	-0.746 ± 0.43 kcal/mol
SAGGSAGGSAGSSMTTVTVTITDTGSGKTTTTELDVPVSEVQAVIDELSPSPTLTITVVQSAGGSAGGSAGG [r17_50_JUSTAS]	1.51 ± 0.028 kcal/mol	1.84 ± 0.049 kcal/mol	1.64 ± 0.043 kcal/mol
SAGGSAGGSAGSSSISRETFDPETGLRYVYDPETDTITVIDLSNNKVVKTTPVGPEELERSAGGSAGGSAGG [r17_271_JUSTAS]	1.95 ± 0.022 kcal/mol	0.244 ± 0.068 kcal/mol	1.55 ± 0.07 kcal/mol
SAGGSAGGSAGSVIVTSTTSTLPNGTVVTNETVSDPSNPGVTTKKTSTTYPDGSVTTTESSAGGSAGGSAGG [r11_483_JUSTAS]	1.73 ± 0.047 kcal/mol	0.213 ± 0.043 kcal/mol	1.36 ± 0.057 kcal/mol
SAGGSAGGSAGSVTITRDYPTPDGTRTTVTITFPSLERSPSVKYKLVSVSPDGNYVLSPESAGGSAGGSAGG [r11_733_JUSTAS]	1.61 ± 0.17 kcal/mol	2.11 ± 0.18 kcal/mol	1.91 ± 0.28 kcal/mol
SAGGSAGGSAGSVTLPKNQVGVSVESYEVTLPDETGESVTRYKITLRFAETGLSAEFYAGSAGGSAGGSAGG [r17_266_TrMRF]	1.34 ± 0.25 kcal/mol	1.2 ± 0.047 kcal/mol	1.26 ± 0.22 kcal/mol
SAGGSAGGSAGSWELSYRFPGVQIEVTYSPEWGFITEIKVQPLPPPPPPSPEDAKEMKEKSAGGSAGGSAGG [r11_320_TrROS]	2.56 ± 0.081 kcal/mol	0.799 ± 0.083 kcal/mol	2.02 ± 0.12 kcal/mol
SAGGSAGGSAGSYPIEYIPAPPDRLWLIDPKNGKIYEIYLDPERGEYSFEEIKEFPLGLESAGGSAGGSAGG [r11_352_JUSTAS]	1.66 ± 0.073 kcal/mol	1.34 ± 0.045 kcal/mol	1.57 ± 0.1 kcal/mol
SAGGSAGGSAGTEIKIPPEFPDLPVKVYPIEVTLLGKGKPKKVILNVATTPDAIIAVDPESAGGSAGGSAGG [r11_21_TrMRF]	-0.61 ± 0.28 kcal/mol	-0.478 ± 0.1 kcal/mol	-0.623 ± 0.2 kcal/mol
SAGGSAGGSAGTIVITQSPDGTWRAYYEDGTAEEFDSIDDLKKALEEHYPDAKTVIFKPASAGGSAGGSAGG [r11_806_TrMRF]	2.99 ± 0.17 kcal/mol	3.33 ± 0.15 kcal/mol	3.15 ± 0.17 kcal/mol
SAGGSAGGSAGTLTLRVQLFDEDGRLVAEREVELEVELPPPPPVELEFDEETRELRRRRLSAGGSAGGSAGG [r17_348_TrROS_Hall]	0.811 ± 0.22 kcal/mol	1.12 ± 0.18 kcal/mol	0.965 ± 0.24 kcal/mol
SAGGSAGGSAGVIPLPGGEEVEYFPEKGEATVRLPDGTVYKVEITKAPDGSLSVTVTPAGSAGGSAGGSAGG [r11_331_JUSTAS]	1.1 ± 0.035 kcal/mol	1.79 ± 0.052 kcal/mol	1.45 ± 0.052 kcal/mol
SAGGSAGGSAGVIRVKLKDGPVREIPLEDVPPELLNTPELLAAIEALAREAGYEIESIEASAGGSAGGSAGG [r11_467_TrMRF]	2.22 ± 0.029 kcal/mol	1.7 ± 0.038 kcal/mol	2.03 ± 0.056 kcal/mol
SAGGSAGGSAGVITVTKDPKTGKYTVTIETPSGPATTVEVSSEEEAKELAKKLGYDIDALSAGGSAGGSAGG [r11_1049_JUSTAS]	3.78 ± 0.087 kcal/mol	3.89 ± 0.14 kcal/mol	3.82 ± 0.098 kcal/mol
SAGGSAGGSAGVIVTPEGDRIVTYDPNTGSVTVTPLDAAGNPLTTTVVAPNGPVVTVTELSAGGSAGGSAGG [r17_385_JUSTAS]	0.871 ± 0.018 kcal/mol	1.66 ± 0.055 kcal/mol	1.22 ± 0.034 kcal/mol
SAGGSAGGSAGVPDNAKIRLAFEFDGYIVLIEATPGTGFIKNIDKVEVFPVIPNTGEVTGSAGGSAGGSAGG [r11_66_TrMRF]	1.85 ± 0.1 kcal/mol	1.53 ± 0.07 kcal/mol	1.79 ± 0.13 kcal/mol

Sequence	folding stability dG unfold [1]	folding stability dG unfold [2]	folding stability dG unfold [3]
SAGGSAGGSAGVPEGEEYLFTVKVTLTFEPVTVKDENGEEHEIDEVTITVTVTVLVKAEDSAGGSAGGSAGG [r11_907_TrROS_Hall]	3.24 ± 0.12 kcal/mol	2.33 ± 0.35 kcal/mol	2.93 ± 0.24 kcal/mol
SAGGSAGGSAGVPSLEEVLAELEANPNSDAVVELPDGTRVRIRVERLPGGELRVEREEVLSAGGSAGGSAGG [r11_300_JUSTAS]	1.78 ± 0.049 kcal/mol	1.21 ± 0.029 kcal/mol	1.6 ± 0.078 kcal/mol
SAGGSAGGSAGVRIDKDGWTIKWYNPDGEKRTFTVDSPEEAKDFLEENFPPGWRVEIEPPSAGGSAGGSAGG [r11_983_TrROS]	1.38 ± 0.056 kcal/mol	1.11 ± 0.046 kcal/mol	1.33 ± 0.13 kcal/mol
SAGGSAGGSAGVTIPDPGEEELRKALEAGREVRVAFPESGKVVLVEGPGPELGEEPEPAASAGGSAGGSAGG [r11_94_JUSTAS]	0.589 ± 0.012 kcal/mol	-0.619 ± 0.093 kcal/mol	0.275 ± 0.075 kcal/mol
SAGGSAGGSAGWGLIITIEVEGEYDPANGQWSLNIEIEIQPIRIPPPKEPPPDDNPNNDDSAGGSAGGSAGG [r17_454_TrROS]	4.08 ± 0.15 kcal/mol	2.27 ± 0.23 kcal/mol	3.86 ± 0.32 kcal/mol
SAGGSAGGSAGWYFPIDELQKEHPNMSPETIADFFQKDGYKIEVEPVGPEPWVKIEPPEKSAGGSAGGSAGG [r11_707_TrROS]	-0.513 ± 0.67 kcal/mol	0.658 ± 0.07 kcal/mol	0.242 ± 0.12 kcal/mol
SAGGSAGGSAGYESVVNELKRKGYKVEVKKTPDGTYVVTVTKKDGTVETITLGPEGGKISSAGGSAGGSAGG [r17_503_JUSTAS]	4.36 ± 0.12 kcal/mol	2.67 ± 0.14 kcal/mol	4.16 ± 0.15 kcal/mol
SAGGSAGGSAGYIKTEHEVTVMEKDPDGGTKMIEVPVKITIPIIPIPPEALEKNPEALKKFLSAGGSAGGSA [r18_114_TrROS]	0.352 ± 0.14 kcal/mol	0.461 ± 0.19 kcal/mol	0.514 ± 0.22 kcal/mol
SAGGSAGGSAGYISIMIFFVLPDGYAIMVKYTFELPPNGNPKIENIEIHVMKLPPGEPIFSAGGSAGGSAGG [r11_517_TrROS]	5.35 ± 0.17 kcal/mol	4.22 ± 0.3 kcal/mol	5.13 ± 0.3 kcal/mol
SAGGSAGGSAGYLELKISFFDPDGQILASITIWIEIVIPPPPKMEYERDPEDGNNKWEHDSAGGSAGGSAGG [r17_348_TrROS]	2.19 ± 0.056 kcal/mol	2.49 ± 0.23 kcal/mol	2.26 ± 0.17 kcal/mol
SAGGSAGGSAIKPGETIPIKIGNFPIKITVYGDWVEITFPNGRKIRFRVAVDDGKLEIDIYFSAGGSAGGSA [r18_172_TrROS]	4.31 ± 0.14 kcal/mol	4.07 ± 0.24 kcal/mol	4.18 ± 0.14 kcal/mol
SAGGSAGGSAIWIPSPEAADEIMDILAKKNGYKINIEPIGQDEDGGMVYEIEIVPPGQPLTSAGGSAGGSAG [r3_59_TrROS]	0.397 ± 0.16 kcal/mol	0.152 ± 0.066 kcal/mol	0.484 ± 0.22 kcal/mol
SAGGSAGGSAKAVIFFEGASIEDVVEAVKARPEEEVLVVFPDGRVLLLTKDDVVVVVPAPFSAGGSAGGSAG [r3_269_TrMRF]	1.22 ± 0.11 kcal/mol	1.19 ± 0.052 kcal/mol	1.23 ± 0.093 kcal/mol
SAGGSAGGSAKEIKLKITKVTFTENEDGTLTATFELEDGYRVTIKFNKKTNKVEIKIEPLPSAGGSAGGSAG [r3_438_TrROS_Hall]	4.12 ± 0.082 kcal/mol	2.47 ± 0.091 kcal/mol	3.74 ± 0.15 kcal/mol
SAGGSAGGSAKEKYILLKVKPGQKVEIEYENGEKKEVEVLEDGYLLIKVKEKNAKIKIKIKSAGGSAGGSAG [r3_334_TrROS_Hall]	2.82 ± 0.051 kcal/mol	1.85 ± 0.17 kcal/mol	2.76 ± 0.32 kcal/mol
SAGGSAGGSAKEVIIEIKVPPNMTEDEIKELLKKKFKGKKVEIKIEKKKNKNGTLIYKVEVKSAGGSAGGSA [r18_360_TrROS_Hall]	3.13 ± 0.12 kcal/mol	2.6 ± 0.15 kcal/mol	2.73 ± 0.34 kcal/mol
SAGGSAGGSAKIEVEVTPLPGNKVLKIIKFENGEYIIEVFYFDPETGKIYSESEIISEEELLSAGGSAGGSA [r18_325_TrMRF]	2.36 ± 0.044 kcal/mol	1.3 ± 0.039 kcal/mol	2.05 ± 0.13 kcal/mol
SAGGSAGGSAKIIIIEEDPEEAIRRVEELFGPGARIEPVRVVRVGDKVYVAVGIDIPASLASAGGSAGGSAG [r3_87_TrMRF]	0.9 ± 0.017 kcal/mol	1.094 ± 0.0092 kcal/mol	0.977 ± 0.044 kcal/mol
SAGGSAGGSAKITIELDGITEVEFDEETGELYLRIEVDGKLYEIRITEDGTIEIREVPLEDSAGGSAGGSAG [r3_62_TrROS_Hall]	3.63 ± 0.11 kcal/mol	1.86 ± 0.097 kcal/mol	3.13 ± 0.17 kcal/mol
SAGGSAGGSAKITITKEDIVSYDEENKTFTIKLKDGSTIKIRVEKVKDGKIKVYDEDTGKPISAGGSAGGSA [r18_418_TrROS_Hall]	1.79 ± 0.048 kcal/mol	1.27 ± 0.063 kcal/mol	1.65 ± 0.18 kcal/mol
SAGGSAGGSAKKKKKKFKIVKIEIEVEVVKDKKTNKYYVKVKIKIYLKGNKKEFEMEFVFPSAGGSAGGSAG [r3_424_TrROS_Hall]	4.07 ± 0.24 kcal/mol	2.29 ± 0.24 kcal/mol	3.37 ± 0.59 kcal/mol
